For four molecules, Kd results are on record in paper PMC8809517, “Cofactor-independent RNA editing by a synthetic S-type PPR protein”.

Test in all cases: high-throughput RNA pulldown from lysate on Ni-NTA beads; HRP: 50 mM Tris pH 8, 150 mM NaCl, 1 mM beta-mercaptoethanol, 50 ug/ml BSA, 3 ug/ml yeast RNA, 0.5% heparin; ITC and FP: Tris pH 8, 200 mM KCl, 5% glycerol; MST: 50 mM Tris pH 8, 200 mM NaCl, 1 mM DTT, BSA, heparin, 0.05% Tween 20
Holding throughout (conditions): tags: N-terminal His-eGFP

Data set [1] has as its target T1, GFP-9S library array, motif 4 ND N98Y;D124M (synthetic construct, N98Y;D124M).
T1 chain: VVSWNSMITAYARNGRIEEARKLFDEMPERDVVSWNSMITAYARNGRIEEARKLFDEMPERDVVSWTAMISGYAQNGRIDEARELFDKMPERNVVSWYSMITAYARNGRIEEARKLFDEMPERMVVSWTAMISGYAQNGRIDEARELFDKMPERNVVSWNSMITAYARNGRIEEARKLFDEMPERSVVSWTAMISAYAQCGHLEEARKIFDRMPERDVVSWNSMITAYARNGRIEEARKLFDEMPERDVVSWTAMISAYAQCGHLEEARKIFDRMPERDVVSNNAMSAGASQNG

Data set [2] addresses T2, GFP-9S library array, motif 4 ND N98S;D124V (synthetic construct, N98S;D124V).
T2 chain: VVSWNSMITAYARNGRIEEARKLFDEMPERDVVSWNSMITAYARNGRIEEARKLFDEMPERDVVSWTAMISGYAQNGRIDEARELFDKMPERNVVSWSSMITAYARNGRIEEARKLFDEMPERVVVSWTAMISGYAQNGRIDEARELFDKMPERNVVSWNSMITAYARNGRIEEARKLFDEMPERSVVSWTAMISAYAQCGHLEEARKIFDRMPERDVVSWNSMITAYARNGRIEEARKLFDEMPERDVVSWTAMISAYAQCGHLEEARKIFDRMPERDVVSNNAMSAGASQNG

Data set [3] concerns the target T3, GFP-9S library array, motif 4 ND N98P;D124V (synthetic construct, N98P;D124V).
T3 chain: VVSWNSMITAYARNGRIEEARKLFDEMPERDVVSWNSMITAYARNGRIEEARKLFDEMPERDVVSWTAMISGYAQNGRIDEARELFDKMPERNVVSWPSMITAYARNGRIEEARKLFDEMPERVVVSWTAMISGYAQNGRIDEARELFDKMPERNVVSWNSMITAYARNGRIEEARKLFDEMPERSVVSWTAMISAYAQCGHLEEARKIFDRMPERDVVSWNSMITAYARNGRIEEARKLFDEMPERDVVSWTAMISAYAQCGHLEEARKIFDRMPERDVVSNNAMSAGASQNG

The target in data set [4] is T4, GFP-9S library array, motif 4 ND D124H (synthetic construct, D124H).
T4 chain: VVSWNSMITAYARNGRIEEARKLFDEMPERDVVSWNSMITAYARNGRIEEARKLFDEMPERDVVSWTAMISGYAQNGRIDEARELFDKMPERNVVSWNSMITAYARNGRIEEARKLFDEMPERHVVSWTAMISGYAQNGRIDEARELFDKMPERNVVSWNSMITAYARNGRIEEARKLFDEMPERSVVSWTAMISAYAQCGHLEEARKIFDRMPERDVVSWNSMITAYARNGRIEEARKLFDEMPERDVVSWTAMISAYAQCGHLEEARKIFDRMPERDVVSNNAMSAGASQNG

The target in data set [5] is T5, GFP-9S library array, motif 4 ND N98C;D124E (synthetic construct, N98C;D124E).
T5 chain: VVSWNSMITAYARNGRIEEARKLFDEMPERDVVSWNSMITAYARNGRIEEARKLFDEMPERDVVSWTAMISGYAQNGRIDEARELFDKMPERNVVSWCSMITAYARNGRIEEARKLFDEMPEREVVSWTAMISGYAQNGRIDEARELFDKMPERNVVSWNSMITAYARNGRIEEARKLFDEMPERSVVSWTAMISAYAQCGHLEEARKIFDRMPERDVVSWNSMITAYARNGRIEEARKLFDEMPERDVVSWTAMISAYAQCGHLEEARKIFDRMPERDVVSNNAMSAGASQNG

B1: IR-rpoA-A (ssRNA)
RNA: AUUAAACGUGA
What is called Kd is the concentration at which binding is half-saturated. Low values mean a tighter complex, high ones a looser complex. For B1, the Kd turned out to be 124 nM in data set [1] (label: 5' IRDye 800CW); 51.2 nM in data set [2] (label: 5' IRDye 800CW); 407 nM in data set [3] (label: 5' IRDye 800CW); 285 nM in data set [4] (label: 5' IRDye 800CW); 146 nM in data set [5] (label: 5' IRDye 800CW).

B2: IR-rpoA-U (ssRNA)
RNA: AUUAUACGUGA
In the case of B2, the Kd in data set [1] (label: 5' IRDye 800CW) amounted to 154 nM; in data set [2] (label: 5' IRDye 800CW), 152 nM; in data set [3] (label: 5' IRDye 800CW), 291 nM; in data set [4] (label: 5' IRDye 800CW), 40.7 nM; in data set [5] (label: 5' IRDye 800CW), 170 nM.

B3: Cy5-rpoA (ssRNA)
RNA: AUUACACGUGA
Consider B3, for which the Kd in data set [1] (label: 5' Cy5) was determined as 40.8 nM; in data set [2] (label: 5' Cy5), 114 nM; in data set [3] (label: 5' Cy5), 121 nM; in data set [4] (label: 5' Cy5) it was 166 nM; in data set [5] (label: 5' Cy5), 503 nM.

B4: Cy5-rpoA-G (ssRNA)
RNA: AUUAGACGUGA
For the molecule B4, the Kd in data set [1] (label: 5' Cy5) turned out to be 36.2 nM; in data set [2] (label: 5' Cy5), 74.5 nM; in data set [3] (label: 5' Cy5) it was 150 nM; in data set [4] (label: 5' Cy5), 287 nM; in data set [5] (label: 5' Cy5), 39.5 nM.
